From patent EP3088890B1 (Chugai Seiyaku Kabushiki Kaisha, dated 2020)

Legend:
[1] = target: T1, GPC3 peptide 1-30 (SEQ ID NO: 1) (human); assay: peptide ELISA, peptide on plate
T1 construct: Synthetic 30-residue peptide of GPC3
T1 peptide: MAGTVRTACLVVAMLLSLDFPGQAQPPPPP

[2] = target: T2, GPC3 peptide 41-70 (SEQ ID NO: 3) (human); assay: peptide ELISA, peptide on plate
T2 construct: Synthetic 30-residue peptide of GPC3
T2 peptide: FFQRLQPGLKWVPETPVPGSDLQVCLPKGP

[3] = target: T3, GPC3 peptide 61-90 (SEQ ID NO: 4) (human); assay: peptide ELISA, peptide on plate
T3 construct: Synthetic 30-residue peptide of GPC3
T3 peptide: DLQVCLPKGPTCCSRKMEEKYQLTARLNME

[4] = target: T4, GPC3 peptide 81-110 (SEQ ID NO: 5) (human); assay: peptide ELISA, peptide on plate
T4 construct: Synthetic 30-residue peptide of GPC3
T4 peptide: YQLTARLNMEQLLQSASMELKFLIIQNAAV

[5] = target: T5, GPC3 peptide 101-130 (SEQ ID NO: 6) (human); assay: peptide ELISA, peptide on plate
T5 construct: Synthetic 30-residue peptide of GPC3
T5 peptide: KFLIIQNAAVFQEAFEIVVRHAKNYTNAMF

[6] = target: T6, GPC3 peptide 121-150 (SEQ ID NO: 7) (human); assay: peptide ELISA, peptide on plate
T6 construct: Synthetic 30-residue peptide of GPC3
T6 peptide: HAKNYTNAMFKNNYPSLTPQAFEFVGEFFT

[7] = target: T7, GPC3 peptide 161-190 (SEQ ID NO: 9) (human); assay: peptide ELISA, peptide on plate
T7 construct: Synthetic 30-residue peptide of GPC3
T7 peptide: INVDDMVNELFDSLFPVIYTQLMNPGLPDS

[8] = target: T8, GPC3 peptide 181-210 (SEQ ID NO: 10) (human); assay: peptide ELISA, peptide on plate
T8 construct: Synthetic 30-residue peptide of GPC3
T8 peptide: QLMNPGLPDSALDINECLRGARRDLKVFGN

[9] = target: T9, GPC3 peptide 201-230 (SEQ ID NO: 11) (human); assay: peptide ELISA, peptide on plate
T9 construct: Synthetic 30-residue peptide of GPC3
T9 peptide: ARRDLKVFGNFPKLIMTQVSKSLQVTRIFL

[10] = target: T10, GPC3 peptide 221-250 (SEQ ID NO: 12) (human); assay: peptide ELISA, peptide on plate
T10 construct: Synthetic 30-residue peptide of GPC3
T10 peptide: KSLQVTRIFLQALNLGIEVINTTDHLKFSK

[11] = target: T11, GPC3 peptide 241-270 (SEQ ID NO: 13) (human); assay: peptide ELISA, peptide on plate
T11 construct: Synthetic 30-residue peptide of GPC3
T11 peptide: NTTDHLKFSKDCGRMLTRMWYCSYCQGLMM

[12] = target: T12, GPC3 peptide 261-290 (SEQ ID NO: 14) (human); assay: peptide ELISA, peptide on plate
T12 construct: Synthetic 30-residue peptide of GPC3
T12 peptide: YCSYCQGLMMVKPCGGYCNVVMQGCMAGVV

[13] = target: T13, GPC3 peptide 281-310 (SEQ ID NO: 15) (human); assay: peptide ELISA, peptide on plate
T13 construct: Synthetic 30-residue peptide of GPC3
T13 peptide: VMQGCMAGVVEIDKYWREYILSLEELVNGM

[14] = target: T14, GPC3 peptide 301-330 (SEQ ID NO: 16) (human); assay: peptide ELISA, peptide on plate
T14 construct: Synthetic 30-residue peptide of GPC3
T14 peptide: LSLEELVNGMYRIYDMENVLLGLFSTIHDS

[15] = target: T15, GPC3 peptide 321-350 (SEQ ID NO: 17) (human); assay: peptide ELISA, peptide on plate
T15 construct: Synthetic 30-residue peptide of GPC3
T15 peptide: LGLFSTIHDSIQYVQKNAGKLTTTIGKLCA

[16] = target: T16, GPC3 peptide 341-370 (SEQ ID NO: 18) (human); assay: peptide ELISA, peptide on plate
T16 construct: Synthetic 30-residue peptide of GPC3
T16 peptide: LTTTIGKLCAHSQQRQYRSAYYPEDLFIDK

[17] = target: T17, GPC3 peptide 361-390 (SEQ ID NO: 19) (human); assay: peptide ELISA, peptide on plate
T17 construct: Synthetic 30-residue peptide of GPC3
T17 peptide: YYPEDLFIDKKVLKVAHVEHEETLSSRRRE

[18] = target: T18, GPC3 peptide 381-410 (SEQ ID NO: 20) (human); assay: peptide ELISA, peptide on plate
T18 construct: Synthetic 30-residue peptide of GPC3
T18 peptide: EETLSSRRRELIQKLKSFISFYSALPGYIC

[19] = target: T19, GPC3 peptide 401-430 (SEQ ID NO: 21) (human); assay: peptide ELISA, peptide on plate
T19 construct: Synthetic 30-residue peptide of GPC3
T19 peptide: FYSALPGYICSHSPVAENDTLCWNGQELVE

[20] = target: T20, GPC3 peptide 421-450 (SEQ ID NO: 22) (human); assay: peptide ELISA, peptide on plate
T20 construct: Synthetic 30-residue peptide of GPC3
T20 peptide: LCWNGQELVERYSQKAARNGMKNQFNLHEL

[21] = target: T21, GPC3 peptide 441-470 (SEQ ID NO: 23) (human); assay: peptide ELISA, peptide on plate
T21 construct: Synthetic 30-residue peptide of GPC3
T21 peptide: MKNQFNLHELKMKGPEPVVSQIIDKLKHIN

[22] = target: T22, GPC3 peptide 461-490 (SEQ ID NO: 24) (human); assay: peptide ELISA, peptide on plate
T22 construct: Synthetic 30-residue peptide of GPC3
T22 peptide: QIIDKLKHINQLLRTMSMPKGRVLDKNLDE

[23] = target: T23, GPC3 peptide 481-510 (SEQ ID NO: 25) (human); assay: peptide ELISA, peptide on plate
T23 construct: Synthetic 30-residue peptide of GPC3
T23 peptide: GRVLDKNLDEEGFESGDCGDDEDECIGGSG

[24] = target: T24, GPC3 peptide 501-530 (SEQ ID NO: 26) (human); assay: peptide ELISA, peptide on plate
T24 construct: Synthetic 30-residue peptide of GPC3
T24 peptide: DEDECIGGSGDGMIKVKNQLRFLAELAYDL

[25] = target: T25, GPC3 peptide 521-550 (SEQ ID NO: 27) (human); assay: peptide ELISA, peptide on plate
T25 construct: Synthetic 30-residue peptide of GPC3
T25 peptide: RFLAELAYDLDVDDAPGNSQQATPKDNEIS

[26] = target: T26, GPC3 peptide 541-570 (SEQ ID NO: 28) (human); assay: peptide ELISA, peptide on plate
T26 construct: Synthetic 30-residue peptide of GPC3
T26 peptide: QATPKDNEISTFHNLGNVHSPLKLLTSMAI

[27] = target: T27, GPC3 peptide 551-580 (SEQ ID NO: 29) (human); assay: peptide ELISA, peptide on plate
T27 construct: Synthetic 30-residue peptide of GPC3
T27 peptide: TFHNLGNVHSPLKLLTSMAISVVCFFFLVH

[28] = target: T28, AW2, C-terminally His-tagged recombinant product of positions 1 to 196 of GPC3 (human, UniProt P51654 25-196); assay: Western blot, pellets of CHO cells expressing the product
T28 construct: Expressed in CHO cells, cell pellets used in Western blot; The range is as printed and starts at position 1; also called AW2 (1-196); not shown: C-terminal His tag

[29] = target: T29, AW3, C-terminally His-tagged recombinant product of positions 1 to 218 of GPC3 (human, UniProt P51654 25-218); assay: as above
T29 construct: Expressed in CHO cells, cell pellets used in Western blot; The range is as printed and starts at position 1; not shown: C-terminal His tag
T29 sequence (P51654 25-218): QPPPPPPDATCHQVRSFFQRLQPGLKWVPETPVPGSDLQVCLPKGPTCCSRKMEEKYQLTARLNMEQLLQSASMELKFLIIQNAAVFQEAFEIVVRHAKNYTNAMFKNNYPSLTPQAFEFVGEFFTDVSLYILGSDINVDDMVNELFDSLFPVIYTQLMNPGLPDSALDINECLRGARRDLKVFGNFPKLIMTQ

T28 sequence (P51654 25-196): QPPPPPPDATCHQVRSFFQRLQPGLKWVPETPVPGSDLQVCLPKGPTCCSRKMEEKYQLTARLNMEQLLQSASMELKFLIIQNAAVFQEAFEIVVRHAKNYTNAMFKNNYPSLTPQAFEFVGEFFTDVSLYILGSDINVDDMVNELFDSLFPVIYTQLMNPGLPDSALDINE

B1: GT114 antibody (antibody, IgG1, V domains shown)
VH: DVQLQESGPGLVKPSQSLSLTCTVTGYSITSDSAWNWIRQFPGNKLEWMAYIMYSGITSYNPSLKSRISITRDTAKNQFFLQLNSVTTEDSATYYCSRGYWYFDVWGAGTTVTVSS
VL: QIVLTQSPAIMSASLGEEITLTCSASSSVSYMHWYQQKSGTSPKLLIYSTSILASGVPSRFSGSGSGTFYSLTISSVEAEDAADYYCLQWITYRTFGGGTKLEIKR
Does B1 bind [1]?
Result: no binding (tested: 2 µg/mL)

Does B1 bind [2]?
Result: no binding (tested: 2 µg/mL)

Does B1 bind [3]?
Result: no binding (tested: 2 µg/mL)

Does B1 bind [4]?
Result: no binding (tested: 2 µg/mL)

Does B1 bind [5]?
Result: no binding (tested: 2 µg/mL)

Does B1 bind [6]?
Result: no binding (tested: 2 µg/mL)

Does B1 bind [7]?
Result: no binding (tested: 2 µg/mL)

Does B1 bind [8]?
Result: no binding (tested: 2 µg/mL)

Does B1 bind [9]?
Result: no binding (tested: 2 µg/mL)

Does B1 bind [10]?
Result: no binding (tested: 2 µg/mL)

Does B1 bind [11]?
Result: no binding (tested: 2 µg/mL)

Does B1 bind [12]?
Result: no binding (tested: 2 µg/mL)

Does B1 bind [13]?
Result: no binding (tested: 2 µg/mL)

Does B1 bind [14]?
Result: no binding (tested: 2 µg/mL)

Does B1 bind [15]?
Result: no binding (tested: 2 µg/mL)

Does B1 bind [16]?
Result: no binding (tested: 2 µg/mL)

Does B1 bind [17]?
Result: no binding (tested: 2 µg/mL)

Does B1 bind [18]?
Result: no binding (tested: 2 µg/mL)

Does B1 bind [19]?
Result: no binding (tested: 2 µg/mL)

Does B1 bind [20]?
Result: no binding (tested: 2 µg/mL)

Does B1 bind [21]?
Result: no binding (tested: 2 µg/mL)

Does B1 bind [22]?
Result: no binding (tested: 2 µg/mL)

Does B1 bind [23]?
Result: no binding (tested: 2 µg/mL)

Does B1 bind [24]?
Result: no binding (tested: 2 µg/mL)

Does B1 bind [25]?
Result: no binding (tested: 2 µg/mL)

Does B1 bind [26]?
Result: no binding (tested: 2 µg/mL)

Does B1 bind [27]?
Result: no binding (tested: 2 µg/mL)

Does B1 bind [28]?
Result: no binding

Does B1 bind [29]?
Result: no binding
